Here are results for nine molecules from US20230212294A1 (MINGHUI PHARMACEUTICAL SHANGHAI, published 2023).

First the molecules themselves.
T1: B7-H3 endogenously expressed on human tumor cell lines (human, UniProt Q5ZPR3 29-534)
T1 construct: whole, on cells; The cell line is named in the assay or readout field of each row; also called NCI-H322 cells endogenously expressing B7-H3; B7-H3-positive human tumor cell lines NCI-H1975, BxPC-3, Calu-6
T1 sequence (looked up): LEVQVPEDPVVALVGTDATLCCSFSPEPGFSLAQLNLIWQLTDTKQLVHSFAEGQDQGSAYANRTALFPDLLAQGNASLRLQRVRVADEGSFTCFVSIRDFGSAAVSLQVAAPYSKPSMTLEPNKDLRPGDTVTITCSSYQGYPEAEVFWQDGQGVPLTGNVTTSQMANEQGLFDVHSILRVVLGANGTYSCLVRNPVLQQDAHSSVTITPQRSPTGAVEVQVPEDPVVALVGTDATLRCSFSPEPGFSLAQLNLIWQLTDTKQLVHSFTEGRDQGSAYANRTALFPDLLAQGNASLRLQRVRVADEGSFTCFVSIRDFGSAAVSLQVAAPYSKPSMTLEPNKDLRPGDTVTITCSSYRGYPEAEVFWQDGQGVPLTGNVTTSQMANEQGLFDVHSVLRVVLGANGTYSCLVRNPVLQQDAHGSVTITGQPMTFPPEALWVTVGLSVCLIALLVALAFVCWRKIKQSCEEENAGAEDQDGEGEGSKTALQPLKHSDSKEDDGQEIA

T2: B7-H3 on CHOK cells overexpressing B7-H3
T2 sequence (Q5ZPR3 whole entry, species assumed, looked up): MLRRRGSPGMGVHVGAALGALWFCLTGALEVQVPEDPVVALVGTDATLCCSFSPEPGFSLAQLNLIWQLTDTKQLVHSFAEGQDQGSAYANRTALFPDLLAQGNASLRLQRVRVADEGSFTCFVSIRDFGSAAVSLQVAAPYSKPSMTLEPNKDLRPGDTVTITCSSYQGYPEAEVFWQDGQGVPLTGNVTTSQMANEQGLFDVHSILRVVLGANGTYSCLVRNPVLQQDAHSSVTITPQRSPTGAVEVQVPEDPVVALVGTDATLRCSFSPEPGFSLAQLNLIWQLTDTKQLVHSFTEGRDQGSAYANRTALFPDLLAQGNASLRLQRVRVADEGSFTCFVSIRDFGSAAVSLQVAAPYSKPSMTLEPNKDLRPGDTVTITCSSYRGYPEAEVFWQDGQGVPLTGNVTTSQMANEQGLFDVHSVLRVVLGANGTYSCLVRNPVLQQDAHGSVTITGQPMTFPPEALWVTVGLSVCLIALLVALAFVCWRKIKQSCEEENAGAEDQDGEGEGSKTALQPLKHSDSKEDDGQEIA

T3: mouse B7-H3-his (mouse, UniProt Q8VE98 29-244, limits assumed)
T3 construct: His-tagged recombinant protein coated on the ELISA plate; not shown: his tag
T3 sequence (looked up): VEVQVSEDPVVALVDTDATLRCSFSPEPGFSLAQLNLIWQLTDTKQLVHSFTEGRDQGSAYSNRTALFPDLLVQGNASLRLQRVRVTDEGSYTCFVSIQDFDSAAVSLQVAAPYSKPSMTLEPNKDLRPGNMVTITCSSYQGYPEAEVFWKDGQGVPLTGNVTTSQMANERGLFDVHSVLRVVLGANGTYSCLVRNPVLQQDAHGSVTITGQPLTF

T4: monkey B7-H3-his (monkey)
T4 chain: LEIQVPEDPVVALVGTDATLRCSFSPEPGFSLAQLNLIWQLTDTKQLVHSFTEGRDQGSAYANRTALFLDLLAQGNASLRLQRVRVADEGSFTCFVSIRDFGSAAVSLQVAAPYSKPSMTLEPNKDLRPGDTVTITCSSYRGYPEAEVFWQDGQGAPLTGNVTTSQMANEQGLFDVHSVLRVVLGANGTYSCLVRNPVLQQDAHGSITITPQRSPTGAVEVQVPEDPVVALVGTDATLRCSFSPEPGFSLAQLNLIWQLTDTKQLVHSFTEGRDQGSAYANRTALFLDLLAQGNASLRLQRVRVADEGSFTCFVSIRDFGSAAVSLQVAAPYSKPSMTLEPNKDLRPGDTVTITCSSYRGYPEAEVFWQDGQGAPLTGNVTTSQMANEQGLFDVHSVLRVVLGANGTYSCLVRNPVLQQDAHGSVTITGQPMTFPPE

B1: NL24-A68 (antibody, V domains shown)
VH: QVQLVQSGAEVKKPGSSVKVSCKASGGTFSSYAISWVRQAPGQGLEWMGGIIPILGIANYAQKFQGRVTITADKSTSTAYMELSSLRAEDTAVYYCARGGSGRYLPDYWGQGTLVTVSA
VL: EIVLTQSPATLSLSPGERATLSCRASQSVSSYLAWYQQKPGQAPRLLIYDASNRATGIPARFSGSGSGTDFTLTISSLEPEDFAVYYCQQRSNWPPSLTFGGGTKVEIK
notes: Screened from the human source library; full-length antibody; also called NL24A68HC; NL24A68LC
B2: NL24-A17 (antibody, V domains shown)
VH: QVQLVQSGAEVKKPGSSVKVSCKASGGTFSSYAISWVRQAPGQGLEWMGGIIPILGIANYAQKFQGRVTITADESTSTAYMELSSLRSEDTAVYYCARGDSGYDSNYWGQGTLVTVSA
VL: B1 VL with S31T, F83Y, S97L, L98F, G102P, E107D
notes: Screened from the human source library; full-length antibody; also called NL24A17HC; NL24A17LC
B3: NL24-A10 (antibody, V domains shown)
VH: B1 VH with Q1E, L55F, I57T, K74E, A88S, G100E, S101R, R103S, P106I
VL: B1 VL with S97M, L98Y, G102Q, V106L
notes: Screened from the human source library; full-length antibody; also called NL24A10HC; NL24A10LC
B4: IL-P6-C11 (antibody, V domains shown)
VH: EVQLQQSGPELVKPGASVRISCKTSGYTFTDYVIHWVKQNHGGSLEWIGGINRDSGGTTYNQKFQDKVTLTVDKSSNTAYMELRSLTSEDSAVYYCTKWKFPWYFDVWGAGTTVTVSS
VL: DIELTQSPAIMSASPGEKVTMTCSASSSISYMHWYQQKPGTSPKRWIYDTSKLASGVPARFSGSGSGTSYSLTISRVEAEDAATYYCQQWSSNPLTFGSGTKLEIK
notes: Unhumanized murine variable regions; full-length antibody
B5: IL-P6-B07 (antibody, V domains shown)
VH: B4 VH with D31E
VL: B4 VL with E3V, I29V, P39S, R76S, V77M, S99A, I105L
notes: as for B4
B6: IL-P6-D06 (antibody, V domains shown)
VH: QVQLQQSGPELVRPGVSVKISCKGSGYTFTDYAIHWVKQSHAKSLEWIGVINTYSGNTNYNQKFKGRATMTVDKSSSTAYMELARLTSEDSAIYFCARGVTYGSGYPYWYFDVWGAGTTVTVSS
VL: DIVMTQSQKFMSTSVGDRVSVTCKASQNVGTNVAWYQQKPGQSPKALIYSASYRYSGVPDRFTGSGSGTDFTLTISNVQSEDLAEYFCQQYNSYPYTFGGGTKLEIK
notes: as for B4
B7: IL-P5-C06 (antibody, V domains shown)
VH: QVQLQQSGPELVRPGVSVKISCKGSGYTFTDYAIHWAKQGHAKSLEWIGIINTYNGNSNYNQNFKGKATMTVDKSSSTAYMELTRLTSEDSAIYYCARNYGSSFNWYFDVWGQGTTLTVSS
VL: DIVLTQSPTTMAASPGEKITITCSASSSISSNYLHWYQQKPGFSPKLLIYSTSNLASGVPARFSGSGSGTSYSLTISSVEAEDAATYYCQQYSGYPLTFGAGTKLELK
notes: Unhumanized murine variable regions from the murine immune phage library; full-length antibody
B8: IL-P7-C05-H4L3 (antibody, V domains shown)
VH: EVQLVESGGGLVQPGGSLRLSCAASGFTFSSYAMSWVRQAPGKGLELVAAINSNGGSTYYADSVKGRFTISRDNAKNTLYLQMSSLRAEDTAVYYCTRNEEFRRGLAYWGQGTLVTVSS
VL: DIQMTQSPSSLSASVGDRVTITCRASENIYSNLAWYQQKPGKAPKLLIYAASNLQSGVPSRFSGSGSGTDYTLTISSLQPEDFATYYCQHFWGTPPWTFGQGTKLEIK
notes: Humanized from IL-P7-C05; full-length antibody; also called ILP7C05huVH4 + ILP7C05huVL3
B9: IL-P7-C05 (antibody, V domains shown)
VH: EVQLVESGGDLVQPGGSLKLSCAASGFTFSSYGMSWVRQTPDKRLELVATINSNGGTTYYPDSVKGRFTISRDNAKHTLYLQMSSLKSEDTAMYYCTRNEEFRRGLAYWGQGTLVTVSA
VL: DIQMIQSPASLSVSVGETVTITCRASENIYSNLAWYQQKQGKSPQLLVYAATNLADGVPSRFSGSGSGTQYSLKINSLQSEDFGSYYCQHFWGTPPWTFGGGTKLEIK
notes: Unhumanized murine variable regions from the murine immune phage library; tested as full-length antibody expressed in ExpiCHO-S cells

Where a chain is given by its changes, count along the chain named.

The target of the first assay is T1, B7-H3 endogenously expressed on human …. As to the kind of experiment: flow cytometry on NCI-H322 cells. The method, then: (§1) CHOK cells overexpressing B7-H3 or NCI-H322 cells endogenously expressing B7-H3 were added to a round-bottom 96-well plate at 100,000 cells per well, centrifuged to remove the supernatant, and then added with a gradient-diluted anti-B7-H3 antibody and incubated at 4 degrees for 1 h. After incubation, the cells were washed twice with FACS buffer (PBS containing 2% FBS), then added with fluorescent-labeled goat anti-human secondary antibody (Abcam, ab98596) and incubated for 0.5 h. After incubation, the cells were washed twice with FACS buffer, then resuspended with FACS buffer and detected with flow cytometry (Beckman, cytoFlex).
Regarding B1, the EC50 (as a rule, the concentration giving half of the maximal effect) was 0.0484 mg/L.

Molecule B2 yielded an EC50 of 0.0267 mg/L.

With B3, the midpoint of the response, the EC50, lay at 0.0304 mg/L.

In the case of B4, the EC50 was determined as 0.21 mg/L.

Take B5: a half-maximal response (EC50) required 0.249 mg/L.

B6: the response was half-maximal at 0.103 mg/L (EC50).

Consider B7, for which the EC50 is 0.0795 mg/L.

In turn, B8 showed an EC50 of 0.0137 mg/L.

In the case of B9, a half-maximal response (EC50) required 0.0126 mg/L.

Another assay concerns the target T2, B7-H3 on CHOK cells overexpressing B7-H3. The assay is described as follows: cell-based or functional assay.
On to B1, for which the “IC50 of CHO endocytosis experiment (toxin-labeled secondary antibody, cell viability)” value (“IC50 of CHO endocytosis experiment” below) stood at 0.0035 mg/L.

In the case of B4, the “IC50 of CHO endocytosis experiment” value turned out to be 0.0035 mg/L.

On to B7, for which the “IC50 of CHO endocytosis experiment” value was 0.0209 mg/L.

Consider B8, for which the “IC50 of CHO endocytosis experiment” value is 0.0199 mg/L.

Take B9: the “IC50 of CHO endocytosis experiment” value is 0.0144 mg/L.

Another assay addresses T1, B7-H3 endogenously expressed on human …. As to the kind of experiment: cell-based or functional assay.
Consider B6, for which the “IC50 of NCI-H322 endocytosis experiment (toxin-labeled secondary antibody, cell viability)” value (“IC50 of NCI-H322 endocytosis experiment” below) is 0.00179 mg/L.

Regarding B7, the “IC50 of NCI-H322 endocytosis experiment” value came to 0.0025 mg/L.

On to B8, for which the “IC50 of NCI-H322 endocytosis experiment” value was found to be 0.00253 mg/L.

For the molecule B9, the “IC50 of NCI-H322 endocytosis experiment” value turned out to be 0.00296 mg/L.

The next assay concerns the target T3, mouse B7-H3-his. As to the kind of experiment: ELISA, antigen coated at 2 µg/mL. The protocol:
(§2) Human B7-H3-his, mouse B7-H3-his and monkey B7-H3-his were diluted to 2 μg/mL with PBS, and added to the ELISA plate at 30 μL per well. The ELISA plate was then incubated in a refrigerator at 4° C. for 16-20 hours. The next day, the ELISA plate was washed once with a lotion (PBS containing 0.05% Tween 20) and then blocked with 5% skim milk powder for 1 hour. After blocking, the ELISA plate was washed once, then added with gradient-diluted anti-B7-H3 antibodies, and incubated at room temperature for 1 h. After incubated, the ELISA plate was washed three times, then added with goat anti-human HRP-labeled secondary antibody, and incubated at room temperature for 1 h. After incubated, the ELISA plate was washed three times, then developed for 5-15 minutes by adding TMB, and finally terminated with 2M sulfuric acid. The data were recorded on the microplate reader.
On the technique in general: An ELISA detects its analyte on a solid surface through an enzyme-linked reagent.
Molecule B1 showed an EC50 of 0.205 mg/L.

On to B2, for which it took 0.0643 mg/L to reach a half-maximal effect (EC50).

Regarding B3, a half-maximal effect (EC50) was put at 0.219 mg/L.

Consider B4, for which the EC50 came to 0.523 mg/L.

The molecule B5 yielded an EC50 of 1.29 mg/L.

Turning to B6, the 50% effective concentration (EC50) was determined as 1.13 mg/L.

Molecule B7 returned an EC50 of 0.134 mg/L.

Take B9: the EC50 is 1.21 mg/L.

A further assay has as its target T4, monkey B7-H3-his. As to the kind of experiment: ELISA, antigen coated at 2 µg/mL. The method, then:
as §2
Regarding B1, it took 0.131 mg/L to reach a half-maximal effect (EC50).

For the molecule B2, the EC50 was 0.0527 mg/L.

B3 showed an EC50 of 0.124 mg/L.

B4 yielded an EC50 of 0.0152 mg/L.

With B5, the EC50 amounted to 0.183 mg/L.

The molecule B6 displayed an EC50 of 0.119 mg/L.

B7 gave a half-maximal effective concentration (EC50) of 0.116 mg/L.

B9: the EC50 stood at 0.14 mg/L.

The target of another assay is T2, B7-H3 on CHOK cells overexpressing B7-H3. As to the kind of experiment: flow cytometry on CHOK cells overexpressing B7-H3. The protocol: as §1
On the technique in general: In flow cytometry, cells or beads pass a laser one at a time.
Turning to B2, the EC50 was found to be 0.665 mg/L.

In turn, B3 came in with an EC50 of 0.448 mg/L.

The molecule B4 returned a concentration for a half-maximal effect (EC50) of 0.311 mg/L.

B6 yielded an EC50 of 0.245 mg/L.

With B7, the concentration for a half-maximal effect (EC50) was 0.954 mg/L.

For the molecule B8, the EC50 amounted to 0.48 mg/L.

The molecule B9 displayed an EC50 of 0.487 mg/L.
